Experimental data: patent US5580955A, “Fragments of neurofibromin (NF1) and method to reverse activated ras induced malignant transformation in mammalian cells” (Ludwig Institute for Cancer Research, priority 1995, dated 1996)

B1: GAP1C: the 709-1044 amino acid C-terminal GTPase activating domain of GAP1 (protein, UniProt P20936 709-1044, looked up, fragment)
chain: RARYSMEKIMPEEEYSEFKELILQKELHVVYALSHVCGQDRTLLASILLRIFLHEKLESLLLCTLNDREISMEDEATTLFRATTLASTLMEQYMKATATQFVHHALKDSILKIMESKQSCELSPSKLEKNEDVNTNLTHLLNILSELVEKIFMASEILPPTLRYIYGCLQKSVQHKWPTNTTMRTRVVSGFVFLRLICPAILNPRMFNIISDSPSPIAARTLILVAKSVQNLANLVEFGAKEPYMEGVNPFIKSNKHRMIMFLDELGNVPELPDTTEHSRTDLSRDLAALHEICVAHSDELRTLSNERGAQQHVLKKLLAITELLQQKQNQYTKTN
B2: NF78: NF1 fragment, amino acid residues 1441 to 1518 (protein)
chain: RPFNDFVKSNFDAARRFFLDIASDCPTSDAVNHSLSFISDGNVLALHRLLWNNQEKIGQYLSSNRDHKAVGRRPFDKM

Assays:
[1] = stability of GAP activity to freezing/thawing or storage; format: physicochemical; details: freezing/thawing or storage at 4° C. for 6 months
c-HaRas protein = assay: Ras GTPase stimulating activity: hydrolysis of [gamma-32P] GTP bound to c-HaRas protein, by GST fusion NF1 mutants; format: biochemical, murine
Excerpt: N- and C- terminal deletion mutants were constructed by subcloning the corresponding PCR DNA fragments into the bacterial expression vector pGEX-2TH, as described in Maruta et al., supra. FIG. 4 sets forth the DNA fragments inserted into the expression vector. The number following NF of each mutant indicates the total amino acid residues included. The DNA fragments inserted include the DNA for human type I NF357, human type II NF1-GRD (amino acid residues 1355 to 1531 in addition to the insert of 21 amino acids) and murine c-HaRas (residues 1-189). The type II-specific insert of 21 amino acids is indicated by the number 21 above a triangle following codon 1371. This 21 amino acid insert is set forth in SEQ ID NO: 2. The solid rectangle indicates the GAP active center of 56 amino acids, whereas the shaded rectangle indicates a supporting domain of 22 amino acids.
The expression vectors were transfected into E.coli and the protein expressed as GST fusion proteins. The fusion proteins were thereafter purified from E.coli as glutathione S-transfeRase fusion proteins and affinity-purified on a glutathione (GSH)-agarose column, as described in Maruta, et al., supra.
The purified proteins were then screened for Ras GTPase stimulating activity. The assay was carried out for each of the NF357 deletion mutants.
The hydrolysis of [gamma-^32 P] GTP bound to c-HaRas protein was determined by incubating with bound protein at 25° C. for 20 minutes in the presence or absence of each NF1 mutant preparation in 100 ul of a buffer containing 50 mMTris-HCl, pH 7.5, 15 mMMgCl2, 2.5 mM EDTA, 3 mM ATP, 1 mM dithiothreitol (DTT) and 0.5 mg/ml bovine serum albumin (BSA), then precipitating the unhydrolyzed [gamma-32P] GTP with charcoal, and finally measuring the radioactivity of the [gamma-32P] inorganic phosphate in the supernatant, as described previously, Maruta et al., supra. Protein concentrations were determined by the Bradford method with BSA as a standard.

Molecule	GAP activity after treatment/storage [1]	Ras GTPase stimulation (in words) (c-HaRas protein)	Activation (fold), Ras GTPase activation (c-HaRas protein; 20 ug/ml NF1 mutants, 25° C., 20 minutes) [fold]	EC50, concentration required for 50% hydrolysis of GTP bound Ras (c-HaRas protein; 25° C., 20 minutes) [µg/mL]	reduction of GTPase activity relative to NF91 (c-HaRas protein; deletion of the C-terminal 13 amino acids from NF91) [fold]
B1	completely inactivated	–	–	–	–
B2	not significantly affected	still able to stimulate Ras GTPase activity	6	25	2.5
